# Ends that are not written are not given here.
# What was measured:
# [1] = target: T1, fibrin in human plasma clots (Homo sapiens, UniProt P02671+P02675+P02679); assay: In vitro MRI of plasma clots at 100 μM (Example 14)
# T1 construct: tissue Dade Behring Control Plasma N; host or cells: clots formed in vitro from pooled human plasma with Pathromtin SL and CaCl2
# T1 sequence (P02671 36-629 limits assumed): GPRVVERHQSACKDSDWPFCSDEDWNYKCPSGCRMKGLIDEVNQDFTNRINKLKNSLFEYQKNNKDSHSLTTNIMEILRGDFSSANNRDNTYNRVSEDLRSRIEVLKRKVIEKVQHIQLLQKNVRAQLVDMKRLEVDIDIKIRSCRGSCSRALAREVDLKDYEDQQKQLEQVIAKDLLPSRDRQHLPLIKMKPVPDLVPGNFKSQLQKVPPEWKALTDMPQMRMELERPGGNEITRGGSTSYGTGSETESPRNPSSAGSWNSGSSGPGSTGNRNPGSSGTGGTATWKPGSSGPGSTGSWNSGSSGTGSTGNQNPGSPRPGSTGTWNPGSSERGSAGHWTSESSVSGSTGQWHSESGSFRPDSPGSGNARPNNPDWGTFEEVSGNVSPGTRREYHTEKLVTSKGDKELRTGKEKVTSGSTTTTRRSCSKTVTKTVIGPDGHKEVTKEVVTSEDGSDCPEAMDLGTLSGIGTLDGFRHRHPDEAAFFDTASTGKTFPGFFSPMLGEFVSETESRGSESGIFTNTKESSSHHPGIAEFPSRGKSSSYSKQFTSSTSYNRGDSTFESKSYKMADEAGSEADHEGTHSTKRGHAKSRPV
# T1 sequence (P02675 45-491 limits assumed): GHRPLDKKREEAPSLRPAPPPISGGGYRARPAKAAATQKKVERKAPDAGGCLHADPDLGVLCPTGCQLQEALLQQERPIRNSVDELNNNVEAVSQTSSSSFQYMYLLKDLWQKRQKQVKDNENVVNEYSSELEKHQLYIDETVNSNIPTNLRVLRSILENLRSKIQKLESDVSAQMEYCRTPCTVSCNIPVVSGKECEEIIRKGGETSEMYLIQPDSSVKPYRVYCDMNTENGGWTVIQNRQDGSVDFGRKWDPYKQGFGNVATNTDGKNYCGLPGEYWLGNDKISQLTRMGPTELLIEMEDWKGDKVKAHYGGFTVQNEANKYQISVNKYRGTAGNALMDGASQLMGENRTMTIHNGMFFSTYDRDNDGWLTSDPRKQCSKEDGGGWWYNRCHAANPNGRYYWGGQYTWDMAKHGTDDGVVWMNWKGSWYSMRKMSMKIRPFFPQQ
# T1 sequence (P02679 27-437 isoform P02679-2 limits assumed): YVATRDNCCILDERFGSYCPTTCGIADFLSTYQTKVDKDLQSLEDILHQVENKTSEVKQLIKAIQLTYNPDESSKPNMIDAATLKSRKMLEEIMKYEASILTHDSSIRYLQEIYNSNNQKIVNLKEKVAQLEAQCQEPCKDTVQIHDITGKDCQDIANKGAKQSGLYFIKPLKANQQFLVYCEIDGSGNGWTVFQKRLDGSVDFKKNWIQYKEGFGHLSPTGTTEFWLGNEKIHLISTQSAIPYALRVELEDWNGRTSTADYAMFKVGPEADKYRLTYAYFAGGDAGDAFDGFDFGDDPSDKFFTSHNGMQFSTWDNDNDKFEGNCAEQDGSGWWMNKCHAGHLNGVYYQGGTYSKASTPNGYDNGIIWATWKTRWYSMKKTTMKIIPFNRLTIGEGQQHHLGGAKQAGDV
# Method: Small plasma clots from different species (human, guinea pig and mouse) were formed by combining citrate plasma (1:3,v/v) phospholipids (Reagent Pathromtin) and CaCl2 0.008 M (Dade Behring, Germany) into small 2 ml vials at 37° C. Clots were washed 3 times with TBS 1× and incubated with contrast agents at a concentration of 100 μM of complex, for 30 minutes at 37° C. Two clots were prepared for each solution of incubation. After the incubation clots were washed 4 times with TBS 1× and placed into small vials filled with TBS 1× for MRI analysis. […] Maximum signal intensity of each clot was measured in recovered MR images and compared to the signal from clots incubated with TBS. […]
# (§1) High resolution MRI was then performed at 2 Tesla by using T1-weighted Spin-Echo (SE) sequences. T1 maps were also calculated from the acquisitions of 2D gradient echo images or inversion recovery spin echo images.
# (§2) The maximum signal intensity was measured within a region of interest (ROI) including a clot, drawn by an operator on each MR image using a dedicated software (MR Research Systems Ltd, Surrey UK). Max signal intensity enhancement (Enh %) was determined as: Enh %=100*(SIx−SI0)/SI0 where SI0 and SIx are the signal intensity of clots incubated without and with test compounds, respectively.
# fibrin in human clots = target: T2, fibrin in human clots (Homo sapiens, UniProt P02671+P02675+P02679); assay: In vitro MRI of human clots at different incubation concentrations (Example 15)
# T2 construct: tissue Dade Behring Control Plasma N; host or cells: clots formed in vitro from pooled human plasma with Pathromtin SL and CaCl2
# T2 sequence (P02671 36-629 limits assumed): T1 sequence (P02671 36-629 limits assumed)
# T2 sequence (P02675 45-491 limits assumed): T1 sequence (P02675 45-491 limits assumed)
# T2 sequence (P02679 27-437 isoform P02679-2 limits assumed): T1 sequence (P02679 27-437 isoform P02679-2 limits assumed)
# Method: By following the above procedure, a second wider group of chelate compounds of the invention including, for instance, Chelate Complexes from 1 to 7 and the Reference Compounds from 1 to 6 were tested on human clots at different incubation concentration (25 to 400 μM of complex). Signal enhancement (%) was then determined for each clots by MR Imaging at 2T and corresponding Gd content in clots was measured by ICP.
# By comparing the signal enhancement in clots, for instance at incubation concentration of 100 μM of peptide, tested compounds could be classified in term of performance as follows (Max signal enhancement was normalized to the chelate complex 4): […]
# as §1, §2
substance,measurement,setting,value
"Chelate Complex 1: Gd chelate (four DTPA-Glu) conjugated via linker to fibrin-binding peptide SEQ ID NO:001 (WQPCPAESWTFCWDPGGGK; cysteine pairing not given here; also: Gd chelate (four DTPA-Glu) conjugated via linker, site not given here, metal complex: Gd)","Signal enhancement in clots, comparison in words",[1]; 100 μM of complex,provides the maximum signal enhancement
same,Max signal Enhancement at 100 μM,"[1]; clots incubated with 100 μM of complex, 30 min, 37°C, T1-weighted MRI at 2T, normalized to chelate complex 1",100%
same,Max signal Enhancement (%) at 100 μM,"fibrin in human clots; human clots, incubation 100 μM of peptide, MRI at 2T, normalized to chelate complex 4",93.2%
same,"Signal enhancement in clots, comparison in words",fibrin in human clots; incubation concentration 100 μM,best results

# From patent US9333272B2, “Fibrin binding peptide conjugates for diagnostic and therapeutic applications” (Bracco Imaging SpA, priority 2006, dated 2016)
